*1 amine or outer side, *2 acyl side, *3 side chain or, on linkers, in order; H or OH if unused. Where no end group is shown, it is not given here. [ ]: non-standard residue; d: D form. Ccam = carbamidomethyl-cysteine, NC(=O)CSC[C@H](N[*:1])C(=O)[*:2]; βAla = NCCC(=O)O

The target of assay [1] is EphA2 extracellular domain fused to the Fc portion of an antibody (EphA2-Fc). Put plainly: ELISA, inhibition of ephrinA5-AP binding to immobilized EphA2-Fc; representative experiment, triplicates. A general note: In an ELISA, binding on a coated surface is turned into a signal by an enzyme label.
For assay [2] the target is unchanged. Put plainly: ELISA, inhibition of ephrinA5-AP binding to immobilized EphA2-Fc.

EphA2 extracellular domain fused to the Fc portion of an antibody (EphA2-Fc), sequence (P29317 whole entry, the tested form may be a part): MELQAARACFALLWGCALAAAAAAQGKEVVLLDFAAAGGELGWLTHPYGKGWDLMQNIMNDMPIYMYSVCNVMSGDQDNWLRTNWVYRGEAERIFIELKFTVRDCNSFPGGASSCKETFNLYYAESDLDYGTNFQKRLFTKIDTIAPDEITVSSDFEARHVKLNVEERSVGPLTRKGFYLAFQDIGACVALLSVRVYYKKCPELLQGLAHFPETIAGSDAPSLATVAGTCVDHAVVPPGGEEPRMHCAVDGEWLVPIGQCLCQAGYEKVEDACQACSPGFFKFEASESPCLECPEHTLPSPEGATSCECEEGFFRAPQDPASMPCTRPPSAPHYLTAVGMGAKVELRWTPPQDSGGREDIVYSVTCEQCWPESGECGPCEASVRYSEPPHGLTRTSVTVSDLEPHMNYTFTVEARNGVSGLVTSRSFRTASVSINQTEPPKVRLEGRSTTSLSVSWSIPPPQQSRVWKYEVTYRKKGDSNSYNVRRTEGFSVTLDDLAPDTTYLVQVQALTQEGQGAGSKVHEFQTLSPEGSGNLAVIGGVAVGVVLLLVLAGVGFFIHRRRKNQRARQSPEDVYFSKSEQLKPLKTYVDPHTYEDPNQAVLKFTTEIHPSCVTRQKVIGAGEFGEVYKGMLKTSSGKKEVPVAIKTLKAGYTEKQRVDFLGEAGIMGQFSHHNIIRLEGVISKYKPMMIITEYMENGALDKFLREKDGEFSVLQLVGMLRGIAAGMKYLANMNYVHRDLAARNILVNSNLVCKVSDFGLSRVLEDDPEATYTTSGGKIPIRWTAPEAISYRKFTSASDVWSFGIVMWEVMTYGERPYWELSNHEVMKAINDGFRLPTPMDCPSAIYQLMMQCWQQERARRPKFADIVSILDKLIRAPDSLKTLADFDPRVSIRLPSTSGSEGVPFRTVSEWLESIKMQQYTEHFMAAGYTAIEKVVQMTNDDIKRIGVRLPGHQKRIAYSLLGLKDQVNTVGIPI

B1: Lys-linked dimer (C-ter) (peptide)
peptide 1: [βAla]WLAYPDSVPYRPKK
peptide 2: [βAla]WLAYPDSVPYRPK
modifications: also: bond at chain A 15 to a chain's C-terminus
On to B1, for which the IC50 in assay [1] and in assay [2] was 0.77 nM throughout.

B2: linear dimer (head-to-tail) (peptide)
peptide: [βAla]WLAYPDSVPYRPKGGAWLAYPDSVPYRPK-NH2
modifications: N-terminus assumed
SMILES: CC(C)C[C@H](NC(=O)[C@H](Cc1c[nH]c2ccccc12)NC(=O)CCN)C(=O)N[C@@H](C)C(=O)N[C@@H](Cc1ccc(O)cc1)C(=O)N1CCC[C@H]1C(=O)N[C@@H](CC(=O)O)C(=O)N[C@@H](CO)C(=O)N[C@H](C(=O)N1CCC[C@H]1C(=O)N[C@@H](Cc1ccc(O)cc1)C(=O)N[C@@H](CCCNC(=N)N)C(=O)N1CCC[C@H]1C(=O)N[C@@H](CCCCN)C(=O)NCC(=O)NCC(=O)N[C@@H](C)C(=O)N[C@@H](Cc1c[nH]c2ccccc12)C(=O)N[C@@H](CC(C)C)C(=O)N[C@@H](C)C(=O)N[C@@H](Cc1ccc(O)cc1)C(=O)N1CCC[C@H]1C(=O)N[C@@H](CC(=O)O)C(=O)N[C@@H](CO)C(=O)N[C@H](C(=O)N1CCC[C@H]1C(=O)N[C@@H](Cc1ccc(O)cc1)C(=O)N[C@@H](CCCNC(=N)N)C(=O)N1CCC[C@H]1C(=O)N[C@@H](CCCCN)C(N)=O)C(C)C)C(C)C
For the molecule B2, the IC50 (usually the concentration at which inhibition is half-maximal) in assay [1] is 0.38 nM; in assay [2], 0.4 nM.
The matching figures for [Ccam]GAWLAYPDSVPYR [CcamGA-WLA-YR]: 1300 nM and 1400 nM.

B3: Click dimer (N-ter) (peptide)
peptide 1: KAWLAYPDSVPYRPK
peptide 2: XGAWLAYPDSVPYRPK
modifications: not fully specified; propargylglycine (Pra) at position 1, joined by a click linkage to KN3 of the other chain; C-terminal amide; azido-lysine (KN3) at position 1, joined by a click linkage to Pra of the other chain; C-terminal amide
Take B3: the IC50 in assay [1] worked out at 0.58 nM; in assay [2], 0.54 nM.

The values above are taken from patent publication US20230391826A1, “COMPOSITIONS AND METHODS FOR TREATING DISEASES” (Sanford Burnham Prebys Medical Discovery Institute, priority 2020, published 2023).
